Experimental data: US20240376185A1 (SMIVET B V, published 2024)

Legend:
[1] = target: T1, tetanus neurotoxin (TeNT), authentic tetanus holotoxin (Clostridium tetani, UniProt P04958 2-1315); assay: competition ELISA on TeNT, binder biotinylated; competitor SVT15L-3FW4M
T1 sequence (P04958 2-457 limits assumed, chain 1 of 2): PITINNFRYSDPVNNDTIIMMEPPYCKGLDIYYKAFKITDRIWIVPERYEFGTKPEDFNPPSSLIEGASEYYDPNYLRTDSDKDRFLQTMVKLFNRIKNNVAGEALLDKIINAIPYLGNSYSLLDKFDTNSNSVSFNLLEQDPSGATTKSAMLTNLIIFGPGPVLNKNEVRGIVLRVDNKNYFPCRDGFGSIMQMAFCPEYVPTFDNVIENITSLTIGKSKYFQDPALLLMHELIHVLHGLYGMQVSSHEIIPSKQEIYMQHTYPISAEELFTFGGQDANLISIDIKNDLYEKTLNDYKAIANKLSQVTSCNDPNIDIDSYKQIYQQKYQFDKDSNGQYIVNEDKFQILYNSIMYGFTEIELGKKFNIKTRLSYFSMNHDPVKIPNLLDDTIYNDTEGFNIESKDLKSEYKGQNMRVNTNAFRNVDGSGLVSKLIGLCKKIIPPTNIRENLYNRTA
T1 sequence (P04958 458-1315 limits assumed, chain 2 of 2): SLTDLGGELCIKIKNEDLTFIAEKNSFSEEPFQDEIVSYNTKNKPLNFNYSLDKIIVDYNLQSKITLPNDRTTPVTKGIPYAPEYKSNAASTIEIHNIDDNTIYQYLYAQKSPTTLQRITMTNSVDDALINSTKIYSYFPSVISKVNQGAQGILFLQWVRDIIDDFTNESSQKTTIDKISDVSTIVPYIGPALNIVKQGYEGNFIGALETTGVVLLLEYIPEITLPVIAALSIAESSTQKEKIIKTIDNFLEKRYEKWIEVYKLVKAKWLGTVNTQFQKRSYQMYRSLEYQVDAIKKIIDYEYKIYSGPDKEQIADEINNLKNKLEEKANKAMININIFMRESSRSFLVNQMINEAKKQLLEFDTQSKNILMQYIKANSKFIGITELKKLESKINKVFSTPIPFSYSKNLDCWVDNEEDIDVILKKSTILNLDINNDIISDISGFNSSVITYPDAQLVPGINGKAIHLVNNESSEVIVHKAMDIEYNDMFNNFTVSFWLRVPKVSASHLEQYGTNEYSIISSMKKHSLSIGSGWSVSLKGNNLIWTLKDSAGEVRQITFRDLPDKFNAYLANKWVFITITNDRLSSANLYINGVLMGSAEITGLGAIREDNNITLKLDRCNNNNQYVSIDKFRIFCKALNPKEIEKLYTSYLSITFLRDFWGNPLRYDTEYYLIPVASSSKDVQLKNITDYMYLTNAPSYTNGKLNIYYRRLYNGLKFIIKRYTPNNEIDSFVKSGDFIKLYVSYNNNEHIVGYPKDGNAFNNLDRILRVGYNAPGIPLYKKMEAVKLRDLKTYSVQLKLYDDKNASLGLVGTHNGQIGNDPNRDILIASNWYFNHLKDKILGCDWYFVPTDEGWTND

[2] = target: T1, tetanus neurotoxin (TeNT), authentic …; assay: competition ELISA on TeNT, binder biotinylated; competitor mAb 14F5
[3] = target: T1, tetanus neurotoxin (TeNT), authentic …; assay: ELISA, TeNT captured with cAb-TT2, biotinylated binder
[4] = target: T1, tetanus neurotoxin (TeNT), authentic …; assay: competition ELISA on TeNT, binder biotinylated; competitor SVT22L
[5] = target: T2, recombinant tetanus toxin fragment C (rTTC) (Clostridium tetani, UniProt P04958 865-1315); assay: ELISA, directly coated rTTC, unlabelled binder
T2 sequence: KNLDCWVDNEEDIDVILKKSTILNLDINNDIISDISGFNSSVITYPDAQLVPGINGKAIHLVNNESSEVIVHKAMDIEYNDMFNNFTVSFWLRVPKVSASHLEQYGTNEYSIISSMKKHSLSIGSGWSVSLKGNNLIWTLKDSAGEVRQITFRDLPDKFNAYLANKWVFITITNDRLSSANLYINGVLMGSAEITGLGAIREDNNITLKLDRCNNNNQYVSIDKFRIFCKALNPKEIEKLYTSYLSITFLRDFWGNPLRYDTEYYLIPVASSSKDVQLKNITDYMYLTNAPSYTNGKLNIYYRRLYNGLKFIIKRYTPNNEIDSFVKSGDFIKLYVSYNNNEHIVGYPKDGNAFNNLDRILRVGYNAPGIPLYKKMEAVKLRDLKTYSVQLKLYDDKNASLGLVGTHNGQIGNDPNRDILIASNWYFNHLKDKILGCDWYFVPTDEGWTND

[6] = target: T1, tetanus neurotoxin (TeNT), authentic …; assay: competition ELISA on TeNT, binder biotinylated; competitor mAb 6F57
[7] = target: T1, tetanus neurotoxin (TeNT), authentic …; assay: competition ELISA on TeNT, binder biotinylated; competitor SVT13L
[8] = target: T1, tetanus neurotoxin (TeNT), authentic …; assay: competition ELISA on TeNT, binder biotinylated; competitor SVT34L
[9] = target: T1, tetanus neurotoxin (TeNT), authentic …; assay: competition ELISA on TeNT, binder biotinylated; competitor SVT02L
[10] = target: T1, tetanus neurotoxin (TeNT), authentic …; assay: competition ELISA on TeNT, binder biotinylated; competitor SVT06L
[11] = target: T1, tetanus neurotoxin (TeNT), authentic …; assay: GT1b-TeNT inhibition ELISA, unlabelled binder
[12] = target: T1, tetanus neurotoxin (TeNT), authentic …; assay: competition ELISA on TeNT, binder biotinylated; competitor SVT08L
[13] = target: T1, tetanus neurotoxin (TeNT), authentic …; assay: competition ELISA on TeNT, binder biotinylated; competitor mAb 11n185
[14] = target: T1, tetanus neurotoxin (TeNT), authentic …; assay: competition ELISA on TeNT, binder biotinylated; competitor SVT03L
[15] = target: T1, tetanus neurotoxin (TeNT), authentic …; assay: competition ELISA on TeNT, binder biotinylated; competitor mAb 6E7
[16] = target: T1, tetanus neurotoxin (TeNT), authentic …; assay: ELISA, TeNT captured with cAb-TT2, unlabelled binder
[17] = target: T1, tetanus neurotoxin (TeNT), authentic …; assay: competition ELISA on TeNT, binder biotinylated; competitor SVT16L
[18] = target: T1, tetanus neurotoxin (TeNT), authentic …; assay: GT1b-TeNT inhibition ELISA, EC at A450 0.59
[19] = target: T1, tetanus neurotoxin (TeNT), authentic …; assay: ELISA, directly coated TeNT, unlabelled binder
[20] = target: T1, tetanus neurotoxin (TeNT), authentic …; assay: ELISA, directly coated TeNT, biotinylated binder
[21] = target: T1, tetanus neurotoxin (TeNT), authentic …; assay: competition ELISA on TeNT, binder biotinylated; competitor SVT15L
[22] = target: dog IgG (chrompure dog IgG) (dog)
[23] = target: T3, tetanus neurotoxin (TeNT), authentic tetanus holotoxin (Clostridium tetani, UniProt P04958 2-1315); assay: bridging ELISA: coated TeNT, SDA, biotinylated TeNT, StrepPO (bivalent binding)
[24] = target: T3, tetanus neurotoxin (TeNT), authentic …; assay: as above; remark: listed apart in the source
Target sequence in this assay (P04958 2-457 limits assumed, chain 1 of 2): as the sequence (P04958 2-457 limits assumed, chain 1 of 2) above
Target sequence in this assay (P04958 458-1315 limits assumed, chain 2 of 2): as the sequence (P04958 458-1315 limits assumed, chain 2 of 2) above

[25] = target: T3, tetanus neurotoxin (TeNT), authentic …; assay: GT1b-TeNT inhibition ELISA
Target sequence in this assay (P04958 2-457 limits assumed, chain 1 of 2): as the sequence (P04958 2-457 limits assumed, chain 1 of 2) above
Target sequence in this assay (P04958 458-1315 limits assumed, chain 2 of 2): as the sequence (P04958 458-1315 limits assumed, chain 2 of 2) above

[26] = target: T3, tetanus neurotoxin (TeNT), authentic …; assay: ELISA: directly coated TeNT, goat anti-llama Ig PO
Target sequence in this assay (P04958 2-457 limits assumed, chain 1 of 2): as the sequence (P04958 2-457 limits assumed, chain 1 of 2) above
Target sequence in this assay (P04958 458-1315 limits assumed, chain 2 of 2): as the sequence (P04958 458-1315 limits assumed, chain 2 of 2) above

[27] = target: T3, tetanus neurotoxin (TeNT), authentic …; assay: GT1b-TeNT inhibition ELISA; remark: listed apart in the source
Target sequence in this assay (P04958 2-457 limits assumed, chain 1 of 2): as the sequence (P04958 2-457 limits assumed, chain 1 of 2) above
Target sequence in this assay (P04958 458-1315 limits assumed, chain 2 of 2): as the sequence (P04958 458-1315 limits assumed, chain 2 of 2) above

[28] = target: T3, tetanus neurotoxin (TeNT), authentic …; assay: ELISA: directly coated TeNT, anti-his6 PO
[29] = target: T3, tetanus neurotoxin (TeNT), authentic …; assay: ELISA: directly coated TeNT, goat anti-llama Ig PO; remark: listed apart in the source
Target sequence in this assay (P04958 2-457 limits assumed, chain 1 of 2): as the sequence (P04958 2-457 limits assumed, chain 1 of 2) above
Target sequence in this assay (P04958 458-1315 limits assumed, chain 2 of 2): as the sequence (P04958 458-1315 limits assumed, chain 2 of 2) above

[30] = target: T3, tetanus neurotoxin (TeNT), authentic …; assay: ELISA: directly coated TeNT, anti-his6 PO; remark: listed apart in the source
[31] = target: T3, tetanus neurotoxin (TeNT), authentic …; assay: BLI (Octet Red96): biotinylated SDA on SA sensor, TeNT as analyte
Target sequence in this assay (P04958 2-457 limits assumed): as the sequence (P04958 2-457 limits assumed, chain 1 of 2) above

[32] = target: Tetanus neurotoxin (TeNT), authentic tetanus holotoxin (Clostridium tetani, UniProt P04958 2-1315)
Tetanus neurotoxin (TeNT), authentic tetanus holotoxin, sequence (P04958 2-457 limits assumed): as the sequence (P04958 2-457 limits assumed, chain 1 of 2) above

B1: SVT22L (VHH)
VHH: QVQLQESGGGLVQAGESLRLSCTASGISFDDYAIGWFRQAPGQQRKGVACISKADGRTDYLGSVKGRFTLSTDNTKNTVHLQMNNLKPEDTALYTCAAEYKSCGMGYKPIDYWGQGMQVTVSS
With B1 the “% inhibition of binding” value [1] was 11%, the “% inhibition of binding” value [2] was 0% and the “EC resulting in A450 0.2” value [3] was 2.6 ng/mL. The “maximal absorbance at 450 nm” value [3] was 0.799, the “% inhibition of binding” value [4] was 94% and the “maximal absorbance at 450 nm” value [5] was 0.981. For the same binder, the “% inhibition of binding” value [6] was 10%, the “% inhibition of binding” value [7] was 95% and the “% inhibition of binding” value [8] was 93%. For the same binder, the “% inhibition of binding” value [9] was 4%, the “% inhibition of binding” value [10] was 6% and the “minimal absorbance at 450 nm” value [11] was 0.107. For the same binder, the “% inhibition of binding” value [12] was 1%, the “% inhibition of binding” value [13] was 3% and the “% inhibition of binding” value [14] was 5%. For the same binder, the “% inhibition of binding” value [15] was 8%, the “EC resulting in A450 0.15” value [16] was 5.4 ng/mL and the “maximal absorbance at 450 nm” value [16] was 0.318. For the same binder, the “% inhibition of binding” value [17] was 92%, the “concentration giving A450 of 0.59” value [18] was 0.105 µg/mL and the “EC resulting in A450 0.2” value [19] was 2 ng/mL. The “maximal absorbance at 450 nm” value [19] was 1.59, the “EC resulting in A450 0.4” value [20] was 1.3 ng/mL and the “maximal absorbance at 450 nm” value [20] was 1.34. For the same binder, the “% inhibition of binding” value [21] was 2%.

B2: SVT34L (VHH)
VHH: QVQLQESGGGLVQPGGSLRLSCAASGRTISSYAMGWFRQAPGKQREFVAAISRSGGNTYYTDSVKGRFIISRDNAKNTLYLQMNNLKPEETAVYYCAADPNLMYESKWKYRALEAWGQGTLVTVSS
For B2, the “% inhibition of binding” value [1] was 14%, the “% inhibition of binding” value [2] was 4% and the “EC resulting in A450 0.2” value [3] was 3.5 ng/mL. For the same binder, the “maximal absorbance at 450 nm” value [3] was 0.669, the “% inhibition of binding” value [4] was 94% and the “maximal absorbance at 450 nm” value [5] was 0.886. The “% inhibition of binding” value [6] was 13%, the “% inhibition of binding” value [7] was 93% and the “% inhibition of binding” value [8] was 95%. For the same binder, the “% inhibition of binding” value [9] was 2%, the “% inhibition of binding” value [10] was -2% and the “minimal absorbance at 450 nm” value [11] was 0.103. For the same binder, the “% inhibition of binding” value [12] was -4%, the “% inhibition of binding” value [13] was 2% and the “% inhibition of binding” value [14] was 0%. The “% inhibition of binding” value [15] was 10%, the “EC resulting in A450 0.15” value [16] was 3.2 ng/mL and the “maximal absorbance at 450 nm” value [16] was 0.335. For the same binder, the “% inhibition of binding” value [17] was 93%, the “concentration giving A450 of 0.59” value [18] was 0.046 µg/mL and the “EC resulting in A450 0.2” value [19] was 1 ng/mL. The “maximal absorbance at 450 nm” value [19] was 1.54, the “EC resulting in A450 0.4” value [20] was 1.7 ng/mL and the “maximal absorbance at 450 nm” value [20] was 1.29. For the same binder, the “% inhibition of binding” value [21] was 3%.

B3: SVT02-GS2-SVG06M4-H6 (bispecific antibody)
chain: QVQLQQSGGGSVQAGGSLRLSCVGPQRTFSTYGMGWFRQAPGKEREFVAGINYKGDTTYYADSVKGRFTISRDNAKNTLYLQMDSLKPEDRAVYQCARKGGLGGDYRDAGQYRYWGQGTQVTVSSGGGGSGGGSEVQLVESGGALVQPGGSLRLSCAASGFPFSAYDMTWVRQAPGQGLEWVSTIHKSGGITTYADSVKGRFTISRDNAKNTLYLQMNNLESEDTAVYYCAKALRAHNSDYVGRNALGSWGQGTQVTVSSHHHHHH
In the case of B3, the maximal absorbance value [22] is reported as 0.06 A450.

B4: SVG13L (VHH)
VHH: QVQLQESGGGLVQPGGSLRLSCEASGFTFDDYGMSWVRQAPGKGLEWVSSLTPNGGSTYYADSVKGRFTISRDNAKNTLYLQMNSLKPEDTALYYCAKNSYYGAMDYWGKGTLVTVSS
For B4, the “Effective SDA Concentration at A450 0.3” value [23] was greater than 1000 ng/mL, the maximal absorbance value [24] was 0.17 A450 and the “Effective SDA Concentration at A450 0.56” value [25] was greater than 1000 ng/mL. The “Effective SDA Concentration at A450 0.15” value [26] was greater than 1000 ng/mL, the “minimal absorbance value (GT1b-TeNT inhibition)” value [27] was 0.72 A450 and the maximal absorbance value [22] was 0.16 A450. For the same binder, the “Effective SDA Concentration at A450 0.15” value [28] was greater than 1000 ng/mL, the binding result [28] was “no binding (tested: 1000 ng/ml (A450 0.15 not reached))” and the maximal absorbance value [29] was 0.09 A450. It also gave a maximal absorbance value [30] of 0.08 A450.

B5: SVT06L (VHH)
VHH: QVQLQESGGGSVQAGGSLRLSCTASELSYDDYTIAWFRRAAGEGRVEDGEGVASITKSYDRAYDNKINYGHSVKGRFTISRDNAKNTVYLQMTDLLPSDTAVYYCALDITPPGGVGASLTEGFLFDYWGQGTQVTVSS
For B5, the “Effective SDA Concentration at A450 0.3” value [23] was 64 ng/mL, the maximal absorbance value [24] was 0.35 A450 and the Kd [31] was 0.535 nM. For the same binder, the koff [31] was 6.27e-05 s⁻¹, the kon [31] was 117000 M⁻¹ s⁻¹ and the “Effective SDA Concentration at A450 0.56” value [25] was 33 ng/mL. The “Effective SDA Concentration at A450 0.15” value [26] was 14 ng/mL, the “minimal absorbance value (GT1b-TeNT inhibition)” value [27] was 0.27 A450 and the “Effective SDA Concentration at A450 0.15” value [28] was 4.9 ng/mL. It also gave a maximal absorbance value [29] of 0.32 A450 and a maximal absorbance value [30] of 1.44 A450.

B6: SVT15L (VHH)
VHH: QVQLQESGGGLVQTGGSLRLSCRASGRAFANYHFGWFRQAPGKDREFVASISWKGGSTYYANFALGRFTSSVDRAESSVYLQMSGLTPEDTATYYCAAHDGGDWNYHTGMDYWGKGILVTVSS
For B6, the Kd [31] was 0.413 nM, the koff [31] was 3.87e-05 s⁻¹ and the kon [31] was 93600 M⁻¹ s⁻¹.

B7: SVT03L (VHH)
VHH: QVQLQQSGGGSVQTGDSLTLSCTASGGSLNSYFVGWFRQSGGKEREFVSVIARTGRSTSYADSVKGRFTISRDNAANTVFLTMNNLRPDDTAIYYCAAVGRPGVLHLTQSYDYWGQGTQVTVSS
In the case of B7, the Kd [32] is reported as 0.0014 nM, the koff [32] is reported as 6.64e-06 s⁻¹ and the kon [32] is reported as 4.62e+06 M⁻¹ s⁻¹.
